Data: the nanobody polyreactivity screen of Harvey et al. (2022)

Assay: yeast display, Sf9 membrane polyspecificity reagent, FACS + sequencing; frameworks hold sequencing errors
In short: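 A synthetic nanobody library was expressed on Saccharomyces cerevisiae BJ5465 by galactose induction for 36–48 hours. The library was stained for 1 hour at 4 °C with 10% biotinylated, detergent-solubilized Sf9 membrane reagent and enriched with streptavidin microbeads before FACS. Low and high (top ~1%) gates were set on anti-HA fluorescence for expression and streptavidin fluorescence for reagent binding, and each polyreactivity label reflects the gate of origin.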

Sequence	polyreactivity (PSR sort gate)
QVQLVESGGGLVQAGGSLRLICAASGFIFTTYAMGWYRQAPGKEREVVAAISSSGTTYYADSVKGRFTISRDNAKNTVYLQMNSLKPEDTAVYYCAARRQFRSYQQRLYYWGQGTQVTVSS	low polyreactivity
QVQLVESGGGLVQAGGSLRLICAASGFIFVYYVMGWYRQAPGKERELVAAITQSGGSTYYADSVKGRFTISRDNAKNTVYLQMNSLKPEDTAVYYCAAYRRTTGGGYDYWGQGTQVTVSS	high polyreactivity
QVQLVESGGGLVQAGGSLRLICAASGFIFYYYAMGWYRQAPGKERQVVAAITWSGGITYYADSVKGRFTISRDNAKNTVYLQMISMKPEDTAVYYCATGYEYYGYSGSRRDYWGQGTQVTVSS	low polyreactivity
QVQLVESGGGLVQAGGSLRLICAASGFILRRYAMGWFRPAPGKEREFVAAIRYRGGNTYYADSVKGRFTLSRDTAKNTVYFQMNSLNPEDTAVYYCAADWSEKYEYWRQGTQVTVSS	high polyreactivity
QVQLVESGGGLVQAGGSLRLICAASGFIYSYYAMGWYRQAPGKERELVAVISGSGGGTYYAVSVKGRFRISRDNAKNTVYLQMNSLKPEDTAVYDFAARNSGGTTKYYYWGQGTQVTVSS	high polyreactivity
QVQLVESGGGLVQAGGSLRLICAASGFTFRSYAMGWYRQAPGKERELVAAITSTGGRTYYADSVKGRFTISRDNAKNTVYLQMNSLKPEDTAVYYCAAGRKHYAPVHFGYWGQGTQVTVSS	high polyreactivity
QVQLVESGGGLVQAGGSLRLICAASGFTFYNYAKGWYRQAPGKERQLVAAISTSGGSTYYADSVKGRFTISRDNAKNTVYLQMNSLKPEDTAVYYCAAQATAYSYAYYYWGQGTQVTVSS	low polyreactivity
QVQLVESGGGLVQAGGSLRLICAASGFTINYYVMGWYRQAPGKERELVAAISGRGGSTYYADSVTGRFTISRDNAKNTVYLQMNSLNPEETAVYYCNKVFSIPWQGVRFDFWGQGTQVTVSS	high polyreactivity
QVQLVESGGGLVQAGGSLRLICAASGGIFYFNAMGWYRQAPGKERELVASITWSGGNTYYADSVKGRFTISRDNAKNTVYLQMNSLKPEDTAVYYCAADTQEYRPTYDYWGQGTQVTVSS	low polyreactivity
QVQLVESGGGLVQAGGSLRLICAASGIFASYAMGWYRQAPGKERELVAAIRSSGGRTYYADSVKGRFTISRDNAKNTVYLQMNSLKPEDTAVYYCAVASGQSFYWGQGTQVTVSS	high polyreactivity
QVQLVESGGGLVQAGGSLRLICAASGIIFNHNAMGWYRQAPGKERELVAAITLSGGTTYYADSVKGRFTISRDNAKNTVYVQMNSLKPEDTALYYCATRSYILGWRYDYWGQGTQVTVSS	high polyreactivity
QVQLVESGGGLVQAGGSLRLICAASGIIFRYYAMGWYRQAPGKERELVASISRGGSTYYADSVKGRFTISRDNAKNTVYLQMNSLKPEDTAVYYCAADVYPVYLYGYEYCGQGTQVTVSS	high polyreactivity
QVQLVESGGGLVQAGGSLRLICAASGITFAVYAMGWYSQAPGKERELVAASSVSGGSTYYADSVKGRFTISRDNAKNTVYLQMNSLKPEATAVYYGAADRYGHFGDWGQGTQVTVSS	high polyreactivity
QVQLVESGGGLVQAGGSLRLICAASGITFLQYARGWYRQATGKERELVAVISRGSRTYYADSVKGRFTISRDNAKNTFYLQMNSLKPEDTAVYYCAAVRGLAVGYDYWGQGTQVTVSS	high polyreactivity
QVQLVESGGGLVQAGGSLRLICAASGITFLRYAMGWYRQAPGKERELVAAISTRGGSTYYADSVKGRFTISRDNAKNTVYLQMNSLKPEDTAVYYCAAAGVTGSYGGKGRWYDFWGQGSQVTVSS	high polyreactivity
QVQLVESGGGLVQAGGSLRLICAASGITLWTYAMGWYRQAPGKERELVAAIRRGGSTYYADSVKGRFTISRDNAKYTVFLQMNSLKPEDTAVYYCNTVSFYPYYYWGQGTQVTVSS	high polyreactivity
QVQLVESGGGLVQAGGSLRLICAASGITYDQNAMGWYRQAPGKDRDLVAAITRGSSTNYADSVKGRVTISRDNAKNTVYLKMNSVKPEDTAVYYCAAAVLGSSKSEVDPDRPEYYYWGQGTQVTVSS	low polyreactivity
